Experimental data reported in PMC2668148.

Test system: N[C@@H](CCC(=O)Nc1ccc([N+](=O)[O-])cc1)C(=O)O
Experiment: purified protein
Conditions: apparent constant; hydrolysis

## HpGT (Helicobacter pylori gamma-glutamyltranspeptidase) (Helicobacter pylori 26695)
  Km: 22.1 ± 1.4 µM
  Vmax: 5.18 µmol/min/mg
